Reference: patent US20260116991A1 (HAINAN SIMCERE ZAIMING PHARMACEUTICAL, published 2026)

T1: polypeptide GC3pep (human)
T1 construct: also called membrane proximal polypeptide GC3pep
T1 peptide: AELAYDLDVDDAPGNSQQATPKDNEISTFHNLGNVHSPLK

T2: polypeptide GC3pep of human GPC3 (Ala524-Lys563) (human)
T2 construct: Residues Ala524-Lys563 of human GPC3 (NCBI NM_004484.3); coated on the ELISA plate; also called membrane proximal polypeptide GC3pep
T2 peptide: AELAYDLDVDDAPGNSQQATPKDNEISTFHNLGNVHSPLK


Key:
polypeptide GC3pep [1] = biological target: T1, polypeptide GC3pep; assay: ELISA, GC3pep coated, antibody 0.001 nM
polypeptide GC3pep [2] = biological target: T1, polypeptide GC3pep; assay: ELISA, GC3pep coated, antibody 0.01 nM;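 also: bound antibody detected with an HRP-conjugated secondary antibody and TMB substrate, color reaction stopped with HCl before reading absorbance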
polypeptide GC3pep [3] = biological target: T1, polypeptide GC3pep; assay: ELISA, GC3pep coated, antibody 100 nM;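 also: detection with an HRP-conjugated secondary antibody and TMB substrate, color reaction stopped with HCl before absorbance reading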
polypeptide GC3pep [4] = biological target: T1, polypeptide GC3pep; assay: ELISA, GC3pep coated, antibody 0.1 nM;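 also: antibody allowed to bind the coated plate 2 h at 37 °C, then detected via HRP-conjugated secondary antibody and TMB development for 10 min, stopped with HCl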
polypeptide GC3pep [5] = biological target: T1, polypeptide GC3pep; assay: ELISA, GC3pep coated, antibody 10 nM;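 also: antibody bound to the coated peptide for 2 h at 37 °C, detected through an HRP-conjugated secondary antibody with TMB colour development stopped by acid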
polypeptide GC3pep [6] = biological target: T1, polypeptide GC3pep; assay: ELISA, GC3pep coated, antibody 1 nM;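 also: bound antibody detected with an HRP-conjugated secondary antibody and TMB substrate, reaction stopped with HCl, after 2 h binding at 37 °C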
polypeptide GC3pep [7] = biological target: T1, polypeptide GC3pep; assay: ELISA, GC3pep coated, antibody 0.0001 nM
murine GPC3-His protein = biological target: T3, murine GPC3-His protein (murine, UniProt Q8CFZ4 25-558, limits assumed); assay: SPR, antibody captured on Protein A chip, murine GPC3-His injected
T3 construct: bought protein; also called murine GPC3 protein
T3 sequence (Q8CFZ4 25-558 limits assumed): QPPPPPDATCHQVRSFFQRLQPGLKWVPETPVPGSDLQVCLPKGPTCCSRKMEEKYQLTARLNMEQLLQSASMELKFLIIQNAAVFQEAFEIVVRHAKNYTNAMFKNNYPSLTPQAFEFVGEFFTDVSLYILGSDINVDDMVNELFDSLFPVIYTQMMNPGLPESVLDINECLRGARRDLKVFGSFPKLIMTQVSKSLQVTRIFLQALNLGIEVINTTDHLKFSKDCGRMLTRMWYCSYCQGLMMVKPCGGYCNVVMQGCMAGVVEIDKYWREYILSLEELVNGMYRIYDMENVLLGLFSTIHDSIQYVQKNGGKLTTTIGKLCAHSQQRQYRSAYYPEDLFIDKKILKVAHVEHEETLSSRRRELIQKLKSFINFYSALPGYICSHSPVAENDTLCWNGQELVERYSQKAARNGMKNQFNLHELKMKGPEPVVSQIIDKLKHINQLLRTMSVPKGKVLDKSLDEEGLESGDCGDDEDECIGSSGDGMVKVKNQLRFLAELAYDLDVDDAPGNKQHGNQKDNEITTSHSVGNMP

[8] = biological target: T2, polypeptide GC3pep of human GPC3 …; assay: ELISA, coated peptide
[9] = biological target: T4, murine GPC3-His protein (Sino Biological, Cat. No. 50989-M08B) (murine, UniProt Q8CFZ4 25-558); assay: ELISA, coated antigen
T4 construct: Bought protein; also called murine GPC3 protein; mouse GPC3-his protein; not shown: His tag
T4 sequence (Q8CFZ4 25-558 limits assumed): as above

| Binder | OD450 nm (polypeptide GC3pep [1]) | OD450 nm (polypeptide GC3pep [2]) | OD450 nm (polypeptide GC3pep [3]) | OD450 nm (polypeptide GC3pep [4]) | OD450 nm (polypeptide GC3pep [5]) | OD450 nm (polypeptide GC3pep [6]) | OD450 nm (polypeptide GC3pep [7]) | Kd (murine GPC3-His protein) | koff (murine GPC3-His protein) | kon (murine GPC3-His protein) | binding result [8] | binding result [9] |
| --- | --- | --- | --- | --- | --- | --- | --- | --- | --- | --- | --- | --- |
| F1.2.14 (antibody, human IgG1, kappa, V domains shown, human-murine chimeric antibody) VH: RVQLQQSGAELVKPGASVRMSCKASGYTFTAYSIEWMKQNLGKSLEWIGNFRPYNDDTKYNENFKGRATLTVEKSSATVYLELSRLTSDDSAVYYCARSGPTDYFDYWGQGTTLIVSS VL: DIQMTQSPASLSASVGETVTITCRASDNIYSYLAWYQQKQGQSPQLLVYNAKTLAEGVPSRFSGSGSVTQFSLKIISLQPEDFGTYYCQHHFGTPRTFGGGTKLEIKR | 0.05 OD450 nm | 0.05 OD450 nm | 0.05 OD450 nm | 0.05 OD450 nm | 0.05 OD450 nm | 0.05 OD450 nm | 0.05 OD450 nm | 0.844 nM | 0.000147 s⁻¹ | 174000 M⁻¹ s⁻¹ |  |  |
| F1.21.8 (antibody, human IgG1, kappa, V domains shown, human-murine chimeric antibody) VH: EVQLQQSGPELVKPGASVKISCKTSGFLFTGHYMHWVKSSHGNILDWIGYIYPYNAISFYNQKFKGKATLTVDKSSNTAYMELRSLTSEDSAVYYCARGDYGNYVTAYWGQGTLVTVSA VL: DVLMTQTPLSLPVSLGDQASISCRSSQSIVHSSGNTYLEWYLQKPGQSPKLLIYKVSNRFSGVPDRFSGSGSGTDFTLKISRVEAEDLGVYYCFQGSHLPWTFGGGTKLDIKR | 0.05 OD450 nm | 0.05 OD450 nm | 0.05 OD450 nm | 0.05 OD450 nm | 0.05 OD450 nm | 0.05 OD450 nm | 0.05 OD450 nm | 0.0771 nM | 4.84e-05 s⁻¹ | 628000 M⁻¹ s⁻¹ |  |  |
| F1.111.11 (antibody, human IgG1, kappa, V domains shown, human-murine chimeric antibody) VH: EVQLQQSGPELVKPGASVKISCKASGYTFTDYYMNWVKQSHGKSLEWIGDIYPNNGDTTYNQRFKGKATLTVDKSSSTAYMELRSLASEDSAVYYCACPYNNPFGYWGQGTLVTVSA VL: DVVMTQTPLSLPVSLGDQASISCRSSQSLVHSNGNTYLHWYLQKPGQSPKLLIYKVSNRFSGVPDRFSGSGSGTDFTLKISRVEAEDLGVYFCSQSTHVPWTFGGGTKLEIKR | 0.06 OD450 nm | 0.05 OD450 nm | 0.15 OD450 nm | 0.06 OD450 nm | 0.06 OD450 nm | 0.06 OD450 nm | 0.06 OD450 nm | 3.47 nM | 0.00045 s⁻¹ | 129000 M⁻¹ s⁻¹ |  |  |
| F1.145.22 (antibody, human IgG1, kappa, V domains shown, human-murine chimeric antibody) VH: QVQLQQSGTDLARPGASVKLSCKASGYTFTSFGISWVKQRTGQGLEWIGEIYPRSGSPYYNEKFTGKATLTADKSSSTAYMELRSLTSEDSAVYFCAKDFGSSYVFDYWGQGTALTVSS VL: DIQMTQSPASLSASVGETVTITCRASENIYSYLTWYQQKQGKSPQLLVYNAKTLAEGVPSRFSGSGSGTQFSLKINSLQPEDFGTYYCQHHYGTPPTFGTGTKLDLKR | 0.04 OD450 nm | 0.04 OD450 nm | 0.11 OD450 nm | 0.04 OD450 nm | 0.05 OD450 nm | 0.04 OD450 nm | 0.04 OD450 nm | 6.87 nM | 0.00173 s⁻¹ | 251000 M⁻¹ s⁻¹ |  |  |
| F4.26.1 (antibody, human IgG1, kappa, V domains shown, human-murine chimeric antibody) VH: QVQLKQSGPGLVQPSQSLSITCTVSGFSLTSYGVHWVRQSPGKGLEWLGVIWSSGNTDYNAVLISRLSIKKDDSKSQVFFKMNSPQVDDSAIYYCGRNGGWLLRGFMDFWGQGTSVTVSS VL: DVVMTQTPLSLPVSLGDQASISCRSSQSLLHSNGNTYLHWYLQRSGQSPNLLIYKVSNRFSGVPDRFSGGGSGTDFTLKISRVEAEDLGIYFCSQSTHVPWTFGGGTKLEIKR | 0.19 OD450 nm | 0.16 OD450 nm | 0.12 OD450 nm | 0.08 OD450 nm | 0.04 OD450 nm | 0.28 OD450 nm | 0.05 OD450 nm | 1.46 nM | 0.00072 s⁻¹ | 492000 M⁻¹ s⁻¹ |  |  |
| F1.118.4 human-murine chimeric antibody (antibody, human IgG1, kappa, V domains shown, Chimeric) VH: QVQLQQSGAELAKPGASVKLSCKASGYSFTSYWIHWVKQRPGQGLEWIGYINPSSGYTKYNQKFKDKATLTADKSSSTAYMQLSSLTYEDSAVYYCARFGSSSFYFDYWGQGTTLTVSS VL: DIVLTQSPASLAVSLGQRATISCRASQSVSSSSYSYMHWYQQKPGQPPKLLIKYASNLDSGVPARFSGSGSGTDFTLNIHPVEEEDTATYYCQHSWEIPAFGGGTKLEIKR |  |  |  |  |  |  |  |  |  |  | no binding (tested: 100 nM) | no binding (tested: 100 nM) |
| F1.9.19 human-murine chimeric antibody (antibody, human IgG1, kappa, V domains shown, Chimeric) VH: DVQLQESGPGLVKPSQSLSLTCSVTGYSITSGYYWNWIRQFPGNRLEWMAYISYDGINNYNPSLKNRISIARDTSTNQFFLKLNSVTSEDTATYYCATTTEVALFDHWGQGTTLTVSS VL: DVLLTQTPLSLPVSLGDQASISCRSSQNIVHGNGNTYLEWFLQKPGQSPKLLIYKVSNRFSGVPDRFSGSGSGTDFTLKISRVEAEDLGLYYCFQASHVPWTFGGGTKLEIKR |  |  |  |  |  |  |  |  |  |  | no binding (tested: 100 nM) | no binding (tested: 100 nM) |
| F1.153.1 human-murine chimeric antibody (antibody, human IgG1, kappa, V domains shown, Chimeric) VH: QIQLVQSGPELKKPGETVKISCKASGYTFTTAGMQWVQKMPGKGFKWIGWINTHSGEPQYAEDFKGRFAFSLETSASTAYLQISNLKNEDTATYFCARSFYYHGSSFFYFDYWGQGTTLTVSS VL: DIVMTQSQKFMSTTVGDRVSITCKASQNVGTAVAWYQQKPGQSPKLLIYSASNRYTGVPDRFTGSGSGADFTLTISNMQSEDLADYFCQQYSRYPLTFGAGTKLELKR |  |  |  |  |  |  |  |  |  |  | no binding (tested: 100 nM) | no binding (tested: 100 nM) |
| F4.21.16 human-murine chimeric antibody (antibody, human IgG1, kappa, V domains shown, Chimeric) VH: DVQLQESGPGLVKPSQSLSLTCSVTGYSITSGYYWNWIRQFPGNKLEWMGYISYDVTVNYNPSLKNRISITRDTSKNQFFLKLNSVTTEDTATYYCATITSVASMDHWGQGTSVTVSS VL: DILMTQTPLSLPVSLGDQASISCRSSQNIVHRNGNTYLEWYLQKPGQSPKLLLYKVSNRFSGVPDRFSGSGSGTDFTLKISRVEAEDLGIYYCFQGSHFPFTFGSGTKLEIKR |  |  |  |  |  |  |  |  |  |  | no binding (tested: 100 nM) | no binding (tested: 100 nM) |
| F1.41.17 human-murine chimeric antibody (antibody, human IgG1, kappa, V domains shown, Chimeric) VH: EVQLVESGGDSVKPGGSLKLSCAASGFTFSSYGMSWVRQTPDKRLEWVATINSGGSYTYYQDSVKGRFTISRDNAKNTLYLQMSSLKSEDTAIYYCVRHHYGSSYDYFDYWGQGTTLTVSS VL: DIVMTQAAPSVPVMPGESVSISCRSSKSLLHSNGNTHLYWFLQRPGQSPQLLIYRMSNLASGVPDRFSGSGSGTAFTLRISRVEAEDVGVYYCMQHLEYPLTFGAGTKLELKR |  |  |  |  |  |  |  |  |  |  | no binding (tested: 100 nM) | no binding (tested: 100 nM) |
| F4.18.4 human-murine chimeric antibody (antibody, human IgG1, kappa, V domains shown, Chimeric) VH: QVQLHQSGAEMAKPGASVNLSCKTSGFTFTDYGISWVKQRTRQGLEWIGDIYPRHINIYYNEKFKDKATLTADRSSSTAYMELRSMTSEDSAVYFCARRGTTGRGALDYWGQGTSLTVSS VL: DILLTQSPAILSVSPGERVSFSCRASQSIGTSIHWYQQRTNGSPRLLIKYAFESISGIPSRFGGSGSRTDFTLTINSVESEDIADYYCQQTYNWPYTFGGGTKLEIKR |  |  |  |  |  |  |  |  |  |  | no binding (tested: 100 nM) |  |
| F4.26.1 human-murine chimeric antibody (antibody, human IgG1, kappa, V domains shown, Chimeric) VH: QVQLKQSGPGLVQPSQSLSITCTVSGFSLTSYGVHWVRQSPGKGLEWLGVIWSSGNTDYNAVLISRLSIKKDDSKSQVFFKMNSPQVDDSAIYYCGRNGGWLLRGFMDFWGQGTSVTVSS VL: DVVMTQTPLSLPVSLGDQASISCRSSQSLLHSNGNTYLHWYLQRSGQSPNLLIYKVSNRFSGVPDRFSGGGSGTDFTLKISRVEAEDLGIYFCSQSTHVPWTFGGGTKLEIKR |  |  |  |  |  |  |  |  |  |  | no binding (tested: 100 nM) |  |
